Measurements as given in patent US20220098328A1, “ANTIBODIES TO M(H)DM2/4 AND THEIR USE IN DIAGNOSING AND TREATING CANCER” (NomoCan Pharmaceuticals LLC, priority 2017, published 2022).

Columns and labels:
[1] = test system: plasma membrane M(H)DM2/4; test: Plasma membrane M(H)DM2/4 after treatment of cells with chemotherapeutic agents (in vitro); assay type: cell-based; details: data not shown
[2] = molecular target: E-Cadherin on intact mouse LL/2 cancer cells (mouse) (UniProt P09803); test: cell-based ELISA on intact LL/2 cells, 5 µg/mL, OD450
Sequence of E-Cadherin on intact mouse LL/2 cancer cells (mouse) (P09803 157-884): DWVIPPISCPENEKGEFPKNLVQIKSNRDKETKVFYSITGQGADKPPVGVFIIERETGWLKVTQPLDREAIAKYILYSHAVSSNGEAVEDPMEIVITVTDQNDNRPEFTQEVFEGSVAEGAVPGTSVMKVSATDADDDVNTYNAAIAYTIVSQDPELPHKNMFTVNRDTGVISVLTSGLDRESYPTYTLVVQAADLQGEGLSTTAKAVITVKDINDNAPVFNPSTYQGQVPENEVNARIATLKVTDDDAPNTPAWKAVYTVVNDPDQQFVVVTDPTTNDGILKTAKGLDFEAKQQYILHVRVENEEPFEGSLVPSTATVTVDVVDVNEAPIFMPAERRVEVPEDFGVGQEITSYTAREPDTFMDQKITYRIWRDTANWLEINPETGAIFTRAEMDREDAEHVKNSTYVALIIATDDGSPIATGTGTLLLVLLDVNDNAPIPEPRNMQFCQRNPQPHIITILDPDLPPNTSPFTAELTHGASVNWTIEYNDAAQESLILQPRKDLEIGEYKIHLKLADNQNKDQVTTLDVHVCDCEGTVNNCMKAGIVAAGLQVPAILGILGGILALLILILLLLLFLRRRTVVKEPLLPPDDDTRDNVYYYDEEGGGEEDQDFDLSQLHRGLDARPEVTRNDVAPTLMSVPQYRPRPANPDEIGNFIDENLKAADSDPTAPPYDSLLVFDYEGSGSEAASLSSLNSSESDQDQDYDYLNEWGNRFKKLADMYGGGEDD

[3] = test system: human, murine, rabbit protein; set-up: key: H—binds to human protein; M—binds to murine protein; R—binds to rabbit protein; details: cited from earlier work
[4] = test system: human pancreatic cancer MIA PaCa-2 cells; test: Cell-ELISA on intact cells; assay type: cell-based
Description: (§1) Cell-ELISA Methodology: 8,000-10,000 cells/well of a 96-well microplate were grown overnight. The next day, unbound cells were washed off with sterile 1×PBS. The cells in each well were fixed with freshly prepared 4% buffered paraformaldehyde (pH 7.2) for 1 hour followed by 3 washes with 1×PBS. The wells were then blocked with 5% BSA in PBS (100 μl/well) for 2 hours at room temperature. Microplate wells were then washed 5 times with 300 μl of ice cold 1×PBS. MAbs NMC-103, NMC-204 or NMC-303 at 1 μg/mL in 1% BSA/PBS were then incubated with various cancer or normal untransformed cells for 2 hours at room temperature. Wells were then washed with 300 μl of ice-cold 1×PBS for 5 times and corresponding secondary antibody HRP-GaM F(ab′)2 diluted 1:2500 or 1:5000 in PBS with 1% BSA were added at 100 μl/well for 1 hour at room temperature followed by washing 5 times with 300 μl of ice-cold 1×PBS. TMB Substrate Solution (1-Step™ Ultra TMB-ELISA, ThermoFisher, Cat. No. 34028) was then added at 50 μL to each microplate well and incubated at room temperature for 30 minutes. The reaction was stopped by addition of 50 μL of stop solution (ThermoFisher, Cat. No. SS04) to each well and absorbance of each well was measured at OD450 nm. The absorbance value of each experimental well was corrected for the absorbance value obtained from wells treated with isotype-identical mAbs included in each experiment. The results are thus expressed as “relative binding”.
(§2) In a 96-well microplate, 15,000 cells/well were cultured overnight. The next day, unbound cells were washed off with sterile 1×PBS. The cells in each well were fixed with freshly prepared 4% buffered paraformaldehyde (pH 7.2) for 1 hour, followed by 3 washes with 1×PBS. The wells were then blocked with 5% BSA in PBS (100 μl/well) for 2 hours at room temperature. Microplate wells were then washed 5 times with 300 μl of ice cold 1×PBS. Monoclonal antibodies NMC-H103 (VH4/VK3) or NMC-C303 at 5 μg/mL in 1% BSA/PBS were then incubated with various cancer cells for 2 hours at room temperature. Wells were then washed with 300 μl of ice-cold 1×PBS for 5 times and corresponding secondary antibody HRP-GaH F(ab′)2 diluted 1:2000 or 1:4000 in PBS with 1% BSA were added at 100 μl/well for 1 hour at room temperature followed by washing 5 times with 300 μl of ice-cold 1×PBS. TMB Substrate Solution (1-Step™ Ultra TMB-ELISA, ThermoFisher, Cat. No. 34028) was then added at 50 μL to each microplate well and incubated at room temperature for 30 minutes. The reaction was stopped by addition of 50 μL of stop solution (ThermoFisher, Cat. No. SS04) to each well and absorbance of each well was measured at OD450 nm. The absorbance value of each experimental well was corrected for the absorbance value obtained from wells treated with isotype-identical mAbs included in each experiment.

[5] = molecular target: T1, recombinant HDM2 protein (GST tagged) (Homo sapiens, UniProt Q00987); test: Western blot (immunoblot); assay type: binding; details: 1 μg/well protein, antibody 1 μg/ml; band at approximately 83 kD
T1 construct: NMC-103, NMC-204 and NMC-303 reacted with the recombinant full-length HDM2 protein; purchased Abcam ab188727
T1 sequence (Q00987 whole entry): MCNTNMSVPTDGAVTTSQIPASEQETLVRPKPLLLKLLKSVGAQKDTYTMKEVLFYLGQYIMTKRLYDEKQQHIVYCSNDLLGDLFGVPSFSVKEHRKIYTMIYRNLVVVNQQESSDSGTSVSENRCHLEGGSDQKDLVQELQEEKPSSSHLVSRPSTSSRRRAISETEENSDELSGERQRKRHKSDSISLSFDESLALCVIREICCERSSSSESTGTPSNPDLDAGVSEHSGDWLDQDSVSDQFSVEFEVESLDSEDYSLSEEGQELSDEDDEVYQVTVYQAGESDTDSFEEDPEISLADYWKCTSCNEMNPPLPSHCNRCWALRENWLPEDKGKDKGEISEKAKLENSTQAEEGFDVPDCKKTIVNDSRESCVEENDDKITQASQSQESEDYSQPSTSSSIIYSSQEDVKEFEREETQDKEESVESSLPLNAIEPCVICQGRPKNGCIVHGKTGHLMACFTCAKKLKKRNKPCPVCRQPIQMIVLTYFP
Description: Western Blot: As for immunoblots, 1 μg/well of recombinant HDM2 protein (GST tagged, Abcam, Cat. No. ab188727) was separated on 8-16% sodium dodecyl sulfate (SDS) polyacrylamide gel and proteins were then transferred to polyvinylidene difluoride (PVDF) membrane. The membrane was blocked with 5% milk followed by incubation with monoclonal antibody NMC-103, NMC-204 or NMC-303 at 1 μg/ml in 1% milk in PBS for 2 hours. The membrane was then washed ×3 times (10 minutes each) and incubated for 1 hour with corresponding HRP-conjugated secondary antibody (Goat anti-Mouse IgG (H&L), F(ab′)2 Frag Cross-adsorbed HRP (HRP-GaM F(ab′)2), ThermoFisher, Cat. No. A24524) diluted 1:5000 in 1% BSA-PBS. The membrane was then washed ×3 times and incubated with Pierce ECL Plus Western Blotting Substrate (ThermoFisher, Cat. No. #32132) for 10 min before developing on a LICOR Scanner.

[6] = test system: primary patient-derived human ovarian cancer OVCA4 cells; test: Cell-ELISA on intact cells; assay type: cell-based; details: OVCA4; mAb 1 μg/mL; fixed, non-permeabilized cells
Description: as §1, §2

[7] = test system: human breast cancer MCF-7 cells; test: Cell-ELISA on intact cells; assay type: cell-based; details: MCF-7; mAb 1 μg/mL; fixed, non-permeabilized cells
Description: as §1, §2

[8] = test system: human ovarian cancer OVCAR-3 cells; test: Cell-ELISA on intact cells; assay type: cell-based; details: OVCAR-3 (resistant to adriamycin, melphalan, cisplatin); mAb 1 μg/mL; fixed, non-permeabilized cells
Description: as §1, §2

[9] = test system: mouse colon cancer MC-38 cells; test: Cell-ELISA on intact cells; assay type: cell-based; details: MC-38; mAb 1 μg/mL; fixed, non-permeabilized cells
Description: as §1, §2

[10] = test system: mouse pancreatic Panc02 cells; test: Cell-ELISA on intact cells; assay type: cell-based; details: Panc02; mAb 1 μg/mL; fixed, non-permeabilized cells
Description: as §1, §2

[11] = test system: human melanoma A2058 cells; test: Cell-ELISA on intact cells; assay type: cell-based; details: A2058; mAb 1 μg/mL; fixed, non-permeabilized cells
Description: as §1, §2

[12] = test system: mouse Lewis Lung LL/2 cells; test: Cell-ELISA on intact cells; assay type: cell-based; details: LL/2; mAb 1 μg/mL; fixed, non-permeabilized cells
Description: as §1, §2

[13] = molecular target: NMC-P3 peptide (SEQ ID NO:3), amino acids 475-491 of HDM2 (Homo sapiens, UniProt Q00987); test: Peptide-ELISA; assay type: binding; details: 5 μg/ml peptide on plate, OD 450 nm
Description: Peptide-ELISA Methodology: 5 μg/ml of NMC-P1, NMC-P2 or NMC-P3 peptide antigen was dried onto a 96-well ELISA plate overnight. Plates were then blocked with 5% BSA in 1× phosphate-buffered saline (PBS) (100 μl/well) for 2 hours at room temperature. Microplate wells were then washed 5 times with 300 μl of ice cold 1×PBS. Appropriate dilutions of monoclonal antibodies NMC-103, NMC-204 or NMC-303 in 1% bovine serum albumin (BSA) in PBS solution were then incubated with their corresponding peptides (NMC-P1, NMC-P2 or NMC-P3, respectively) at room temperature. After 2 hours, wells were washed 5 times with 300 μl ice-cold PBS/well and 100 μl secondary antibody (HRP-labeled Goat anti-Mouse F(ab′)2 H&L cross-adsorbed secondary antibody (HRP-GaM F(ab′)2), ThermoFisher, Cat. No. A24524) diluted 1:2500 to 1:5000 in PBS-1% BSA solution were added and the incubation continued at room temperature. After 1 hour, the wells were washed again 5 times with 200 μl of ice-cold PBS and 50 μL of the TMB Substrate Solution (1-Step™ Ultra TMB-ELISA, ThermoFisher, Cat. No. 34028) were added to each well and color was allowed to develop for 30 minutes at room temperature. The reaction was stopped by addition of 50 μL of stop solution (ThermoFisher, Cat. No. SS04) to each well and absorbance of each well was read immediately for optical density (OD) at 450 nm.

[14] = test system: human triple negative breast cancer HCC1806 cells; test: Cell-ELISA on intact cells; assay type: cell-based; details: mAb 1 μg/mL, fixed, non-permeabilized cells
Description: as §1

[15] = test system: human uveal melanoma 92.1 cells; test: Cell-ELISA on intact cells; assay type: cell-based; details: mAb 1 μg/mL, fixed, non-permeabilized cells
Description: as §1

[16] = test system: normal human peripheral blood mononuclear cells (PBMCs); test: Cell-ELISA on intact cells; assay type: cell-based; details: freshly isolated normal human PBMCs
Description: as §1

**Q.** With `Nc1ccn([C@@H]2O[C@H](CO)[C@@H](O)C2(F)F)c(=O)n1` [Gemcitabine] as the molecule, how does the “plasma membrane M(H)DM2/4 level of treated cells” value [1] read?
**A.** Its value is “increase in plasma membrane M(H)DM2/4”.

**Q.** Which average OD reading [2] does the source give for E-cadherin G10 (SC-8426) (antibody) here?
**A.** The average OD reading was 1.49 OD.

**Q.** With `CC(=O)O[C@H]1C(=O)[C@@]2(C)[C@H]([C@H](OC(=O)c3ccccc3)[C@]3(O)C[C@H](OC(=O)[C@H](O)[C@@H](NC(=O)c4ccccc4)c4ccccc4)C(C)=C1C3(C)C)[C@]1(OC(C)=O)CO[C@@H]1C[C@@H]2O` [Paclitaxel] as the molecule, how does the “plasma membrane M(H)DM2/4 level of treated cells” value [1] read?
**A.** The value was “increase in plasma membrane M(H)DM2/4”.

**Q.** Which results are given for Cytochrome C [reference compound]?
**A.** Species Reactivity [3]: H; binding to intact, EDTA-released MiaPaCa-2 cells, cell-ELISA ([4]; EDTA 10 mmols, pH 7.2, 5 min, 37° C.): only minimal binding

B1: NMC-303: mouse monoclonal antibody of the IgM isotype that binds to NMC-P3 (SEQ ID NO:3); VH SEQ ID NO:40, VL SEQ ID NO:41 (antibody, V domains shown)
VH: QVQLQQPGAELVKPGASVKLSCKASGYTFTSYYMYWVKQRPGQGLEWIGGINPRNGGTNFNEKFKNKATLTADKSSTTAYMQLSSLTSEDSAVYYCTRSGYYAMDYWGQGTSVTVSS
VL: DIQMTQTTSSLSASLGDRVTISCRASQDISNFLNWYQQKPDGTVKLLIYYTSRLHSGVPSRFSGSGSGTDYSLTISNLEQEDIATYFCQQGNTLPRTFGGGTKLEIK
modifications: mAb NMC-303 Heavy Chain Variable Region; mAb NMC-303 Light Chain Variable Region
**Q.** Which results are given for B1?
**A.** reactivity with recombinant full-length HDM2-GST protein (immunoblot) [5]: reacted; relative binding (reactivity) to intact cells, cell-ELISA [6]: reactivity; relative binding (reactivity) to intact cells, cell-ELISA [7]: reactivity; relative binding (reactivity) to intact cells, cell-ELISA [8]: reactivity; relative binding (reactivity) to intact cells, cell-ELISA [9]: reactivity; relative binding (reactivity) to intact cells, cell-ELISA [10]: reactivity; relative binding (reactivity) to intact cells, cell-ELISA [11]: reactivity; relative binding (reactivity) to intact cells, cell-ELISA ([4]; MIA PaCa-2, mAb 1 μg/mL, fixed, non-permeabilized cells): reactivity; binding to intact MIA PaCa-2 cells when competed with NMC-P3 peptide ([4]; cell-ELISA peptide competition): competed; relative binding (reactivity) to intact cells, cell-ELISA [12]: reactivity; binding to NMC-P3 peptide [13]: bound; relative binding (reactivity) to intact cells, cell-ELISA [14]: reactivity; relative binding (reactivity) to intact cells, cell-ELISA [15]: reactivity; binding to intact normal cells, cell-ELISA [16]: virtually no binding
